Our source for the abundance fitness values is the Human Domainome abundance scans (Beltran et al. 2025).

B1: Nucleolar transcription factor 1, residues 408 to 469; numbered along this chain, P17480 (parent)
chain: KRPVSAMFIFSEEKRRQLQEERPELSESELTRLLARMWNDLSEKKKAKYKAREAALKAQSER

± gives the uncertainty stated by the source.

The variants in this series derive from B1. Kind of series: abundance fitness (aPCA) (normalised: wild type 0, dead -1); higher = more abundant; growth selection in yeast, the domain comes from the species named. The conditions noted are these: Homo sapiens.
Consider KRPVSAMFIFSEEKRRQLQEERPELSESELTRLLARMWNDLSEKKKAKYKAREWALKAQSER [A54W], for which the abundance fitness was -0.199 ± 0.059.

With KRPVSAMFIFSEEKRRQLQEERPELSESELTRLLARMWNDLSEKKKAKYKAREPALKAQSER [A54P], the abundance fitness was -0.267 ± 0.075.

With KRPVSAMFIFSEEKRRQLQEERPELSESELTRLLARMWNDLSEKKKAKYKAREHALKAQSER [A54H], the abundance fitness was -0.014 ± 0.13.

Take KRPVSAMFIFSEEKRRQLQEERPELSESELTRLLARMWNDLSEKKKAKYKAREVALKAQSER [A54V]: the abundance fitness is -0.003 ± 0.052.

Consider KRPVSAMFIFSEEKRRQLQEERPELSESELTRLLARMWNDLSEKKKAKYKARERALKAQSER [A54R], for which the abundance fitness was -0.031 ± 0.037.

Consider KRPVSAMFIFSEEKRRQLQEERPELSESELTRLLARMWNDLSEKKKAKYKAREKALKAQSER [A54K], for which the abundance fitness is -0.014 ± 0.054.

For KRPVSAMFIFSEEKRRQLQEERPELSESELTRLLARMWNDLSEKKKAKYKARELALKAQSER [A54L], the abundance fitness is -0.056 ± 0.047.

In the case of KRPVSAMFIFSEEKRRQLQEERPELSESELTRLLARMWNDLSEKKKAKYKAREYALKAQSER [A54Y], the abundance fitness is -0.075 ± 0.075.

As for KRPVSAMFIFSEEKRRQLQEERPELSESELTRLLARMWNDLSEKKKAKYKARECALKAQSER [A54C], the abundance fitness was -0.051 ± 0.1.

Turning to KRPVSAMFIFSEEKRRQLQEERPELSESELTRLLARMWNDLSEKKKAKYKARETALKAQSER [A54T], the abundance fitness is -0.04 ± 0.054.

Turning to KRPVSAMFIFSEEKRRQLQEERPELSESELTRLLARMWNDLSEKKKAKYKAREMALKAQSER [A54M], the abundance fitness was -0.098 ± 0.084.

Consider KRPVSAMFIFSEEKRRQLQEERPELSESELTRLLARMWNDLSEKKKAKYKAREDALKAQSER [A54D], for which the abundance fitness turned out to be 0.006 ± 0.13.

As to KRPVSAMFIFSEEKRRQLQEERPELSESELTRLLARMWNDLSEKKKAKYKARESALKAQSER [A54S], the abundance fitness was -0.071 ± 0.059.

In the case of KRPVSAMFIFSEEKRRQLQEERPELSESELTRLLARMWNDLSEKKKAKYKAREQALKAQSER [A54Q], the abundance fitness was -0.102 ± 0.068.

On to KRPVSAMFIFSEEKRRQLQEERPELSESELTRLLARMWNDLSEKKKAKYKAREIALKAQSER [A54I], for which the abundance fitness was -0.142 ± 0.084.

In the case of KRPVSAMFIFSEEKRRQLQEERPELSESELTRLLARMWNDLSEKKKAKYKAREFALKAQSER [A54F], the abundance fitness was -0.181 ± 0.089.

For KRPVSAMFIFSEEKRRQLQEERPELSESELTRLLARMWNDLSEKKKAKYKAREEALKAQSER [A54E], the abundance fitness was -0.063 ± 0.088.

As to KRPVSAMFIFSEEKRRQLQEERPELSESELTRLLARMWNDLSEKKKAKYKARENALKAQSER [A54N], the abundance fitness is -0.033 ± 0.099.

Consider KRPVSAMFIFSEEKRRQLQEERPELSESELTRLLARMWNDLSEKKKAKYKARMAALKAQSER [E53M], for which the abundance fitness is -0.164 ± 0.07.

As to KRPVSAMFIFSEEKRRQLQEERPELSESELTRLLARMWNDLSEKKKAKYKARHAALKAQSER [E53H], the abundance fitness was -0.152 ± 0.091.

Take KRPVSAMFIFSEEKRRQLQEERPELSESELTRLLARMWNDLSEKKKAKYKARWAALKAQSER [E53W]: the abundance fitness was -0.133 ± 0.074.

For KRPVSAMFIFSEEKRRQLQEERPELSESELTRLLARMWNDLSEKKKAKYKARKAALKAQSER [E53K], the abundance fitness is -0.366 ± 0.083.

With KRPVSAMFIFSEEKRRQLQEERPELSESELTRLLARMWNDLSEKKKAKYKARTAALKAQSER [E53T], the abundance fitness is -0.211 ± 0.064.

Regarding KRPVSAMFIFSEEKRRQLQEERPELSESELTRLLARMWNDLSEKKKAKYKARQAALKAQSER [E53Q], the abundance fitness was -0.146 ± 0.074.

For KRPVSAMFIFSEEKRRQLQEERPELSESELTRLLARMWNDLSEKKKAKYKARNAALKAQSER [E53N], the abundance fitness is -0.37 ± 0.36.

Regarding KRPVSAMFIFSEEKRRQLQEERPELSESELTRLLARMWNDLSEKKKAKYKARFAALKAQSER [E53F], the abundance fitness is -0.186 ± 0.068.

Turning to KRPVSAMFIFSEEKRRQLQEERPELSESELTRLLARMWNDLSEKKKAKYKARDAALKAQSER [E53D], the abundance fitness was -0.123 ± 0.076.

Regarding KRPVSAMFIFSEEKRRQLQEERPELSESELTRLLARMWNDLSEKKKAKYKARYAALKAQSER [E53Y], the abundance fitness was -0.122 ± 0.091.

Take KRPVSAMFIFSEEKRRQLQEERPELSESELTRLLARMWNDLSEKKKAKYKARSAALKAQSER [E53S]: the abundance fitness was -0.13 ± 0.056.

Consider KRPVSAMFIFSEEKRRQLQEERPELSESELTRLLARMWNDLSEKKKAKYKARVAALKAQSER [E53V], for which the abundance fitness is -0.078 ± 0.051.

As to KRPVSAMFIFSEEKRRQLQEERPELSESELTRLLARMWNDLSEKKKAKYKARLAALKAQSER [E53L], the abundance fitness was -0.183 ± 0.056.

KRPVSAMFIFSEEKRRQLQEERPELSESELTRLLARMWNDLSEKKKAKYKARCAALKAQSER [E53C]: the abundance fitness was -0.086 ± 0.11.

Regarding KRPVSAMFIFSEEKRRQLQEERPELSESELTRLLARMWNDLSEKKKAKYKARGAALKAQSER [E53G], the abundance fitness was -0.142 ± 0.081.

Take KRPVSAMFIFSEEKRRQLQEERPELSESELTRLLARMWNDLSEKKKAKYKARAAALKAQSER [E53A]: the abundance fitness is -0.056 ± 0.072.

As for KRPVSAMFIFSEEKRRQLQEERPELSESELTRLLARMWNDLSEKKKAKYKARRAALKAQSER [E53R], the abundance fitness was -0.389 ± 0.051.

Turning to KRPVSAMFIFSEEKRRQLQEERPELSESELTRLLARMWNDLSEKKKAKYKARIAALKAQSER [E53I], the abundance fitness was -0.356 ± 0.15.

For KRPVSAMFIFSEEKRRQLQEERPELSESELTRLLARMWNDLSEKKKAKYKAREAELKAQSER [A55E], the abundance fitness was determined as 0.058 ± 0.073.

With KRPVSAMFIFSEEKRRQLQEERPELSESELTRLLARMWNDLSEKKKAKYKAREACLKAQSER [A55C], the abundance fitness was -0.028 ± 0.08.

In the case of KRPVSAMFIFSEEKRRQLQEERPELSESELTRLLARMWNDLSEKKKAKYKAREAFLKAQSER [A55F], the abundance fitness is 0.059 ± 0.17.

For KRPVSAMFIFSEEKRRQLQEERPELSESELTRLLARMWNDLSEKKKAKYKAREADLKAQSER [A55D], the abundance fitness is -0.039 ± 0.12.

With KRPVSAMFIFSEEKRRQLQEERPELSESELTRLLARMWNDLSEKKKAKYSAREAALKAQSER [K50S], the abundance fitness was -0.131 ± 0.053.

As for KRPVSAMFIFSEEKRRQLQEERPELSESELTRLLARMWNDLSEKKKAKYPAREAALKAQSER [K50P], the abundance fitness was -0.65 ± 0.077.

Regarding KRPVSAMFIFSEEKRRQLQEERPELSESELTRLLARMWNDLSEKKKAKYRAREAALKAQSER [K50R], the abundance fitness was -0.032 ± 0.055.
